Laboratory results reported in the supplement of paper PMC10266784.

B1: library; numbered along this chain (parent)
chain: MAAAAAAAAEQQSSNGPVKKSMREKAVERRSVNKEHNSNFKAGYIPIDEDRLHKTGLRGRKGNLAICVIILLFILAVINLIITLVIWAVIRIGPNGCDSMEFHESGLLRFKQVSDMGVIHPLYKSTVGGRRNENLVITGNNQPIVFQQGTTKLSVENNKTSITSDIGMQFFDPRTQNILFSTDYETHEFHLPSGVKSLNVQKASTERITSNATSDLNIKVDGRAIVRGNEGVFIMGKTIEFHMGGNMELKAENSIILNGSVMVSTTRLPSSSSGDQLGSGDWVRYKLCMCADGTLFKVQVTSQNMGCQISDNPCGNTH

Variants of: B1
Test: SGCB cell-surface expression functional score (HA stain, bin4 vs bin1, normalised to synonymous) (log10 ratio); higher = more cell-surface SGCB (functional)
Summary of the method: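 HEK293 cells stably expressing alpha-, gamma- and delta-sarcoglycan received codon-saturation libraries of HA-tagged, YFP-fused human beta-sarcoglycan by lentiviral transduction at MOI <0.1, performed in duplicate. Cells positive for YFP were sorted after 72 hours and cultured for 5–7 days, then stained on ice with Alexa Fluor 647 anti-HA and fixed. Fixed cells were sorted into four 5% intensity bins and amplicon-sequenced, and the log ratio of highest-bin to lowest-bin variant frequency, as a median over codons and transductions, gives the functional score. Per section, synonymous variants were scaled to mean 0, SD 0.5.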

Variant | SGCB cell-surface expression functional score (log10)
D50T | 0.44
P269Q | 0.32
C290D | 0.2
R58I | 0.13
D311F | 0.43
L107G | -0.26
V18P | 0.29
L277D | -0.09
S21F | -0.32
E28K | -0.15
Q112S | -0.17
Y285V | -0.66
K250Y | 1.05
P143I | -0.11
T238V | 0.95
F171Q | 0.8
V298S | -0.15
K297A | -0.41
S154Q | -0.7
A2Q | 0.19
I239M | 0.83

Variant | SGCB cell-surface expression functional score (log10)
I256W | -0.179
G293V | -0.73
E35D | 0.11
T266I | 0.26
H187D | 0.45
H103N | 0.13
E10N | 0.39
S14M | 0.08
N258Y | 0.03
G228L | -1.15
G194D | 0.64
N37G | -0.15
I178A | -1.66
T163G | -1.5
R284V | -1.16
L72D | -0.14
K34G | 0.01
E240G | 0.76
P313F | -0.03
D311Q | -0.87
L84V | 0.24

Variant | SGCB cell-surface expression functional score (log10)
G128S | 0.07
A42D | -0.28
H190I | -0.36
V136I | 0.32
S271Q | -0.08
N211G | -3.64
E10V | -0.1
L153K | -1.12
W87C | -0.23
G222C | 0.58
S270P | 0
I225G | 0.01
N199I | -0.28
N157R | 0.01
I66F | -0.03
I82W | -1.15
K152A | 0
L191C | -0.5
E24A | 0
L287T | -0.72
E248G | 0.62

Variant | SGCB cell-surface expression functional score (log10)
S310G | 0.34
I208D | -1.1
H53A | 0.38
A26K | 0.41
N15P | 0.34
S154F | -0.49
G59M | 0.31
A26L | -0.05
L57I | 0.49
L249T | 0
G222P | -1.42
D292N | -0.13
A88W | -0.36
V68A | -0.01
M247H | 0.26
L71G | 0.23
H187Y | -0.18
A7P | 0.29
A65L | 0.15
F73I | -0.11
A291P | 0.02
